Data on one molecule can be found in US20030108912, “Liver enriched transcription factor” (published 2003).

The target of the data set is T1, HNF-4 Hph I truncation (Rattus norvegicus, UniProt P22449 SEQ:1-219).
T1 chain: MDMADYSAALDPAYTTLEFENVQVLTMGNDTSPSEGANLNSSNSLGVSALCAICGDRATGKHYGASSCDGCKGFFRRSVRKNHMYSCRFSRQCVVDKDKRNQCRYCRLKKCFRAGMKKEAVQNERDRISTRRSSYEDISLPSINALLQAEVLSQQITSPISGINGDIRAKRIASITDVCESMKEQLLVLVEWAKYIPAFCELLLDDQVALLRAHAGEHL
The data set can be described thus: EMSA; zinc fingers present, dimerization region absent. The note with it: label: 32P; four-base 5' overhangs. On the technique in general: A gel shift assay detects complexes by their altered migration in electrophoresis.

B1: APF1 (dsDNA)
DNA 1: TCGAGCGCTGGGCAAAGGTCACCTGC
DNA 2: GCAGGTGACCTTTGCCCAGCGCTCGA
Consider B1, for which the binding result was “no binding”.
